Measurements as given in publication PMC4300236.

Target: rabbit skeletal muscle type 1 ryanodine receptor (RyR1) (rabbit (Oryctolagus cuniculus)) (UniProt P11716)
Assay: cryo-EM structure

Sequence of rabbit skeletal muscle type 1 ryanodine receptor (RyR1), P11716 1-5037 (P11716 whole entry): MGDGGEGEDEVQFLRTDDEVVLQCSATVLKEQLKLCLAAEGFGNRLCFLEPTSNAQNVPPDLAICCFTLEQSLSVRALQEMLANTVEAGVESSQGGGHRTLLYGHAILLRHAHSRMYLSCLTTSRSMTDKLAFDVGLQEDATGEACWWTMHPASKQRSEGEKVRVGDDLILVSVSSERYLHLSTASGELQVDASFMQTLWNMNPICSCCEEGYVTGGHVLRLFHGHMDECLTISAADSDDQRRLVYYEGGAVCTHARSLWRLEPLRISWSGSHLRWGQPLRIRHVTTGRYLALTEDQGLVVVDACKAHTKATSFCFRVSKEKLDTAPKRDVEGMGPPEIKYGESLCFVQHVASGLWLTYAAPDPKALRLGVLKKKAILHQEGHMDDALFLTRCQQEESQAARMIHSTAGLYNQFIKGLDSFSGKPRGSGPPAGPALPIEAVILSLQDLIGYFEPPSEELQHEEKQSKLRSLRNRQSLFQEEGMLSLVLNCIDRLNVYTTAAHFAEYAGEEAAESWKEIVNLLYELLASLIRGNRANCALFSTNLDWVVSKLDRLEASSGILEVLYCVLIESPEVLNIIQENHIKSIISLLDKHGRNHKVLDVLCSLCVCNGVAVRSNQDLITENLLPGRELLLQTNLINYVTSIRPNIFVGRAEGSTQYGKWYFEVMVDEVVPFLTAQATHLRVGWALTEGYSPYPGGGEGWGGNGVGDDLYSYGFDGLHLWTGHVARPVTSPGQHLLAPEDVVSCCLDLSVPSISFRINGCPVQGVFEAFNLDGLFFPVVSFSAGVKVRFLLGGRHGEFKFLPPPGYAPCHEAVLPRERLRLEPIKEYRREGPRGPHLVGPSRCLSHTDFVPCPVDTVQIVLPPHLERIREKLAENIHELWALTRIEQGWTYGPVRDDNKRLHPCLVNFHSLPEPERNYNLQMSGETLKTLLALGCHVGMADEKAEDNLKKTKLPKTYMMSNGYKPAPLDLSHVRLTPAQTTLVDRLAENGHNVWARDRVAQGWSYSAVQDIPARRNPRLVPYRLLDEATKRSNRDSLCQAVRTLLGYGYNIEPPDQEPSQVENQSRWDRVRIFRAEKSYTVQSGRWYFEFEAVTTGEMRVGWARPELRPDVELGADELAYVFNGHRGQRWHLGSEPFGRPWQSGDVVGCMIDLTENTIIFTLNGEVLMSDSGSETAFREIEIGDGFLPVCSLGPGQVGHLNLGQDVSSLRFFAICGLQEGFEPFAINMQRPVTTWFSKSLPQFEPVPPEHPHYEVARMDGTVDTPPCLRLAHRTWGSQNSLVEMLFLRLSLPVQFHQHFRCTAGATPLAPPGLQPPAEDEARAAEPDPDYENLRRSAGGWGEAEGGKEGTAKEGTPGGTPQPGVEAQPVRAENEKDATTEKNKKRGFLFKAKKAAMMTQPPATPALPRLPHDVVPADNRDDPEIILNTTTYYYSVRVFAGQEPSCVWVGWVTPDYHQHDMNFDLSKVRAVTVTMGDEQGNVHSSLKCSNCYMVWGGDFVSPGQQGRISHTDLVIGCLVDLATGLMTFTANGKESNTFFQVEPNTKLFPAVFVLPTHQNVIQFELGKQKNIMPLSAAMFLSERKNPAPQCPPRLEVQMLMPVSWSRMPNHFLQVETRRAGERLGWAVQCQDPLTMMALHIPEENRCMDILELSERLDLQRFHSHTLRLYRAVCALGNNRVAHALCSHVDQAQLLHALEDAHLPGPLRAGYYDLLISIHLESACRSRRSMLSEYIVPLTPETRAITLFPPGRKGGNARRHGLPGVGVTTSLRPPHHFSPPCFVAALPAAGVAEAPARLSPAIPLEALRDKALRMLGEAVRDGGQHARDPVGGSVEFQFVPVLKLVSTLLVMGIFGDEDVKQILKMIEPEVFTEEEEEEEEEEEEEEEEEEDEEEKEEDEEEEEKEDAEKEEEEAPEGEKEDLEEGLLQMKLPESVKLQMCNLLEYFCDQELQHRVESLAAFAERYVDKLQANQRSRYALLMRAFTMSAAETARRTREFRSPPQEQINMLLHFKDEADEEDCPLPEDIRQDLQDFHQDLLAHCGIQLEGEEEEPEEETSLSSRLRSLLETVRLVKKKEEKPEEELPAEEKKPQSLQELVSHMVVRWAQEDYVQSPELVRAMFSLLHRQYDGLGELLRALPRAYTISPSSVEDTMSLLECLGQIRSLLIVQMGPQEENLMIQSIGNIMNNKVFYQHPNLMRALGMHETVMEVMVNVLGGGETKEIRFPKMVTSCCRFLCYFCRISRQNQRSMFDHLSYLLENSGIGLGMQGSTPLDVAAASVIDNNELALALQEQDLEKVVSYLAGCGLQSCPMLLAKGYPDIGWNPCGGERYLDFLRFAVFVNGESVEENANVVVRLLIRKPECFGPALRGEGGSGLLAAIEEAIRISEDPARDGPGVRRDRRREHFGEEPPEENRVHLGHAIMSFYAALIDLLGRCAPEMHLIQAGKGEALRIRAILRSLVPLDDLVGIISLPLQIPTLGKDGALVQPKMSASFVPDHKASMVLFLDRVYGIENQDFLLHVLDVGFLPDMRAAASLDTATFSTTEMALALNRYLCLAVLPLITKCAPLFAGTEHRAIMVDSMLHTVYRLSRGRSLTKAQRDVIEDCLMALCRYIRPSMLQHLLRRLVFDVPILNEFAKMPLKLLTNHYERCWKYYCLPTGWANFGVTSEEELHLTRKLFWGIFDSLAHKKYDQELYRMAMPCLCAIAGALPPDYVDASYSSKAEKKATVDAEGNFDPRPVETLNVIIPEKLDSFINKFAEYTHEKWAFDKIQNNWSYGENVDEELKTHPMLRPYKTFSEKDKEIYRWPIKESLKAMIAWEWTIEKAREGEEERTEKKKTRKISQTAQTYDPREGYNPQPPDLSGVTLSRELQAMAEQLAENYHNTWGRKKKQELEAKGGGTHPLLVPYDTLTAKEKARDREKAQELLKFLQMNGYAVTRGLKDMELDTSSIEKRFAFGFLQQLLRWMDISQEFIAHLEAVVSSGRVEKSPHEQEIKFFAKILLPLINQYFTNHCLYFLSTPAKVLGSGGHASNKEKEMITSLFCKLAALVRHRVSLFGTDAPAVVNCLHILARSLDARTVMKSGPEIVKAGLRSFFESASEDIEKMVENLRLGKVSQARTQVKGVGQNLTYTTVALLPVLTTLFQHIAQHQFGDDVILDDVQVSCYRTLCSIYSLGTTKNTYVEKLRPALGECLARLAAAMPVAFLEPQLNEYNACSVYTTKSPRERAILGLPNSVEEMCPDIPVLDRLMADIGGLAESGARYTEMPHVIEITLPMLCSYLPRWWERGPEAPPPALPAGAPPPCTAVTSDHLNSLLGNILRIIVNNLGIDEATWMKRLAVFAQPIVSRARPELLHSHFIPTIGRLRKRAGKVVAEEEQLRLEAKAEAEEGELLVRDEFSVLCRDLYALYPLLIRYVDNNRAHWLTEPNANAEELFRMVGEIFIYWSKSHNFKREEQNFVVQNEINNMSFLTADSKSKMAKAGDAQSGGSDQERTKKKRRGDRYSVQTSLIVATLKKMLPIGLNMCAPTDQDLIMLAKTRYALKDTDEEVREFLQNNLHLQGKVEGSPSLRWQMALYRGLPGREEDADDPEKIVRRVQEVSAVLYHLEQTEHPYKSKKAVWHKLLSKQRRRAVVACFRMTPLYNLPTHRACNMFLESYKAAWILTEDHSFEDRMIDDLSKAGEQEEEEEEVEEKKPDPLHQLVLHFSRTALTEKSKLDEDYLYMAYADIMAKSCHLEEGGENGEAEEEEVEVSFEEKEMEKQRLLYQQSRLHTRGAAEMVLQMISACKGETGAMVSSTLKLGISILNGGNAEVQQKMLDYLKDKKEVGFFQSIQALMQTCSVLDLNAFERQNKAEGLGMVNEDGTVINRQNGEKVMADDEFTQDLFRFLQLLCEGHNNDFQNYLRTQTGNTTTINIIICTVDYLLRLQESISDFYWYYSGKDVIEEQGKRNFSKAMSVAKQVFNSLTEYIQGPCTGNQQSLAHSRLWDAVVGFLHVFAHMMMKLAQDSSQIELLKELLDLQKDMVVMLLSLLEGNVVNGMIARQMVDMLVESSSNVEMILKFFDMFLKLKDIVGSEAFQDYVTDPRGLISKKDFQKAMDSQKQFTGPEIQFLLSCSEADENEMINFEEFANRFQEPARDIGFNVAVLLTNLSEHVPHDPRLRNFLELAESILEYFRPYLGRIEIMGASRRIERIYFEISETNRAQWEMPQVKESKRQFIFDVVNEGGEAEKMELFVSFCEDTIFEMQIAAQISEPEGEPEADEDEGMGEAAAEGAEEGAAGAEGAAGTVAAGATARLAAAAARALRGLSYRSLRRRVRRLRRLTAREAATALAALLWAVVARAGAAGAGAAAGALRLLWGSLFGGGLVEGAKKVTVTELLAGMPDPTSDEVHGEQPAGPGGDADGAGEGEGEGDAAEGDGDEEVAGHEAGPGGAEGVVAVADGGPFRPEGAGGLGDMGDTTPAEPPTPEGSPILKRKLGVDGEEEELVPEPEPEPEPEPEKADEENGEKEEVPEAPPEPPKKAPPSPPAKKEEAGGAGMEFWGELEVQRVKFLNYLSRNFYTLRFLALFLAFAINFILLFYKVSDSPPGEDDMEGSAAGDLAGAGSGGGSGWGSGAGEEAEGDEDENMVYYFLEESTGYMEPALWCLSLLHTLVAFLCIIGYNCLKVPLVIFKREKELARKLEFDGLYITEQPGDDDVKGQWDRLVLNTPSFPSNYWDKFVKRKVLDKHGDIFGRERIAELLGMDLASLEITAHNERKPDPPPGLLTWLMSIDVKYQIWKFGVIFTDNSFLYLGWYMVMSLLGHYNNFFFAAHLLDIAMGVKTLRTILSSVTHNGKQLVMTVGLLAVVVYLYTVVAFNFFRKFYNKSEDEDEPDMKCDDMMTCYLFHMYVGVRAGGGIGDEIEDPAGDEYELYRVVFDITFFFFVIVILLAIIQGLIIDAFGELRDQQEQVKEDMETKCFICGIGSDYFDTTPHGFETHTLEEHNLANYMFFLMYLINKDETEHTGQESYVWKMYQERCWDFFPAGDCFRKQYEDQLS

stoichiometry N: 4
Substance: rabbit skeletal muscle type 1 ryanodine receptor (RyR1), P11716 1-5037
